We go through 1 molecule from article PMC12851022, “Targeting the Spliceosomal Protein USP39 Through Allosteric Ligands and PROTAC‐Induced Degradation” (Angewandte Chemie (International Ed. in English), 2025).

The target in one experiment is VHL_WT-EGFP (UniProt P40337).
In another experiment the target is VHL_m (Δ91–121) (UniProt P40337).
Sequence of VHL_m (Δ91–121) (P40337 other isoform, or with tags, fused parts or gaps mutant): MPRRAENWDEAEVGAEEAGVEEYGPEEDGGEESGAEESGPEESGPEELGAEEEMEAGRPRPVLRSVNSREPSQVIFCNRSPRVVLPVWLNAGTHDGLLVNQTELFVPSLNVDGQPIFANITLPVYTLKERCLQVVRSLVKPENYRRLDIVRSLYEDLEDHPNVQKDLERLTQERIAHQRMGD

Sequence of VHL_WT-EGFP (P40337 whole entry): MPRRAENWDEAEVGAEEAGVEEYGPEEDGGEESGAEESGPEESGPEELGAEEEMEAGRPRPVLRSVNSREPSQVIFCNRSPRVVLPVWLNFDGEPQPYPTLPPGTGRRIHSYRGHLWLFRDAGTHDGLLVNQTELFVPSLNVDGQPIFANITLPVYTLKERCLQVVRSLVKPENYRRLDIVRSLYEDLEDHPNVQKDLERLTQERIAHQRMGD

B1: USP39-OFP (natural protein)
chain: MSGRSKRESRGSTRGKRESESRGSSGRVKRERDREREPEAASSRGSPVRVKREFEPASAREAPASVVPFVRVKREREVDEDSEPEREVRAKNGRVDSEDRRSRHCPYLDTINRSVLDFDFEKLCSISLSHINAYACLVCGKYFQGRGLKSHAYIHSVQFSHHVFLNLHTLKFYCLPDNYEIIDSSLEDITYVLKPTFTKQQIANLDKQAKLSRAYDGTTYLPGIVGLNNIKANDYANAVLQALSNVPPLRNYFLEEDNYKNIKRPPGDIMFLLVQRFGELMRKLWNPRNFKAHVSPHEMLQAVVLCSKKTFQITKQGDGVDFLSWFLNALHSALGGTKKKKKTIVTDVFQGSMRIFTKKLPHPDLPAEEKEQLLHNDEYQETMVESTFMYLTLDLPTAPLYKDEKEQLIIPQVPLFNILAKFNGITEKEYKTYKENFLKRFQLTKLPPYLIFCIKRFTKNNFFVEKNPTIVNFPITNVDLREYLSEEVQAVHKNTTYDLIANIVHDGKPSEGSYRIHVLHHGTGKWYELQDLQVTDILPQMITLSEAYIQIWKRRDNDETNQQGA
As to B1, in the experiment with VHL_WT-EGFP, the DC50 of USP39 PROTAC V1-induced degradation of USP39-OFP, fluorescence assay in HEK293T cells co-expressing USP39 OFP and VHL WT-EGFP is 1 nM. In addition, the fold reduction of USP39 PROTAC V1-induced degradation of USP39-OFP against cells with VHL WT-EGFP, fluorescence assay in HEK293T cells expressing VHL m in the experiment with VHL_m (Δ91–121) is more than 80 fold.
